In patent US20240091361A1, “T CELL RECEPTORS TARGETING RAS MUTATIONS AND USES THEREOF” (MEMORIAL SLOAN-KETTERING CANCER CENTER, priority 2021, published 2024):

What was measured:
[1] = target: T1, HMCN2 peptide on HLA-A*11:01 (human); test: cytokine release
T1 peptide: IKQGADGSGT

[2] = target: T2, DYH8 peptide on HLA-A*11:01 (human); test: cytokine release
T2 peptide: KVAGADGKGI

[3] = target: T3, CC88B peptide on HLA-A*11:01 (human); test: cytokine release
T3 peptide: LRLGADGAGS

[4] = target: T4, MED13 peptide on HLA-A*11:01 (human); test: cytokine release
T4 peptide: NNDGADGMGI

[5] = target: T5, TBL3 peptide on HLA-A*11:01 (human); test: cytokine release
T5 peptide: LSSGSDGLVK

[6] = target: T6, NDF2 peptide on HLA-A*11:01 (human); test: cytokine release
T6 peptide: TEQGADGAGR

[7] = target: T7, EFMT2 peptide on HLA-A*11:01 (human); test: cytokine release
T7 peptide: MSSGADGGGG

[8] = target: T8, KRAS wild type (10-mer) peptide on HLA-A*11:01 (human); test: cytokine release
T8 peptide: VVVGAGGVGK

[9] = target: T9, GEM (also listed as SEQ ID NOs 82, 106, 130, 141) peptide on HLA-A*11:01 (human); test: cytokine release
T9 peptide: AVFGAGGVGK

[10] = target: T10, MARF1 peptide on HLA-A*11:01 (human); test: cytokine release
T10 peptide: LKLGADGSGP

[11] = target: T11, MICU1 peptide on HLA-A*11:01 (human); test: cytokine release
T11 peptide: YFFGADLKGK

[12] = target: T12, GTR14; GTR3 (the same peptide, also listed as SEQ ID NO 88) peptide on HLA-A*11:01 (human); test: cytokine release
T12 peptide: QAHGADRSGK

[13] = target: T13, MYLK peptide on HLA-A*11:01 (human); test: cytokine release
T13 peptide: GGVGADGGGS

[14] = target: T14, DAZP1 peptide on HLA-A*11:01 (human); test: cytokine release
T14 peptide: NNSGADEIGK

[15] = target: T15, PER1 peptide on HLA-A*11:01 (human); test: cytokine release
T15 peptide: PLEGADGGGD

[16] = target: T16, FOXL2 peptide on HLA-A*11:01 (human); test: cytokine release
T16 peptide: AGAGADGYGY

[17] = target: T17, ZN646 peptide on HLA-A*11:01 (human); test: cytokine release
T17 peptide: PEDGADGWGP

[18] = target: T18, KRAS G12D (9-mer; the same sequence in NRAS G12D and HRAS G12D) peptide on HLA-A*11:01 (human); test: cytokine release
T18 peptide: VVGADGVGK

[19] = target: T19, CHADL peptide on HLA-A*11:01 (human); test: cytokine release
T19 peptide: RQCGADKVGK

[20] = target: T20, ADA2C peptide on HLA-A*11:01 (human); test: cytokine release
T20 peptide: GAGGADGQGA

[21] = target: T21, PBX3 peptide on HLA-A*11:01 (human); test: cytokine release
T21 peptide: GHEGADGDGR

[22] = target: T22, FMNL1 peptide on HLA-A*11:01 (human); test: cytokine release
T22 peptide: QEAGADTPGK

[23] = target: T23, HIC1 peptide on HLA-A*11:01 (human); test: cytokine release
T23 peptide: GVPGPDGKGK

[24] = target: T24, KRAS G12D (10-mer; the same sequence in NRAS G12D and HRAS G12D) peptide on HLA-A*11:01 (human); test: multimer staining
T24 peptide: VVVGADGVGK

[25] = target: T25, SEZ6 peptide on HLA-A*11:01 (human); test: cytokine release
T25 peptide: LSLEAPTVGK

[26] = target: T26, ABCF1 peptide on HLA-A*11:01 (human); test: cytokine release
T26 peptide: STSPSDKVVK

[27] = target: T27, CFA47 peptide on HLA-A*11:01 (human); test: cytokine release
T27 peptide: MVFDSPTIGK

[28] = target: T28, RSLAA peptide on HLA-A*11:01 (human); test: cytokine release
T28 peptide: AVLGAPGVGK

[29] = target: T29, RL7A peptide on HLA-A*11:01 (human); test: cytokine release
T29 peptide: KVAPAPAVVK

[30] = target: T30, SALL1 peptide on HLA-A*11:01 (human); test: cytokine release
T30 peptide: SATSPPGSVK

[31] = target: T31, SHAN3 peptide on HLA-A*11:01 (human); test: cytokine release
T31 peptide: TTVPSPASGK

[32] = target: T32, IL17F peptide on HLA-A*11:01 (human); test: cytokine release
T32 peptide: KTLHGPAMVK

[33] = target: T33, BMS1 peptide on HLA-A*11:01 (human); test: cytokine release
T33 peptide: VVMGPPKVGK

[34] = target: T34, CPNS2 peptide on HLA-A*11:01 (human); test: cytokine release
T34 peptide: SVMDSDTTGK

[35] = target: T35, CL056 peptide on HLA-A*11:01 (human); test: cytokine release
T35 peptide: SSQSAPTTGK

[36] = target: T36, FLNA peptide on HLA-A*11:01 (human); test: cytokine release
T36 peptide: VTIDGPSKVK

[37] = target: T37, KAD3 peptide on HLA-A*11:01 (human); test: cytokine release
T37 peptide: VIMGAPGSGK

[38] = target: T38, CD166 peptide on HLA-A*11:01 (human); test: cytokine release
T38 peptide: NVFEAPTIVK

[39] = target: T39, GRIN1 peptide on HLA-A*11:01 (human); test: cytokine release
T39 peptide: GTAGPPSAVK

[40] = target: T40, IGM peptide on HLA-A*11:01 (human); test: cytokine release
T40 peptide: LTESGPALVK

[41] = target: T41, CPNS1 peptide on HLA-A*11:01 (human); test: cytokine release
T41 peptide: AVMDSDTTGK

[42] = target: T42, KZF4 peptide on HLA-A*11:01 (human); test: cytokine release
T42 peptide: HSVSSPTVGK

[43] = target: T43, LEGL peptide on HLA-A*11:01 (human); test: cytokine release
T43 peptide: SVADSDAVVK

[44] = target: T44, K1671 peptide on HLA-A*11:01 (human); test: cytokine release
T44 peptide: TTKSGPALGK

[45] = target: T45, CK049 peptide on HLA-A*11:01 (human); test: cytokine release
T45 peptide: YSCPPPALVK

B1: TCR 3 (TCR, V domains shown)
Valpha: AQTVTQSQPEMSVQEAETVTLSCTYDTSESDYYLFWYKQPPSRQMILVIRQEAYKQQNATENRFSVNFQKAAKSFSLKISDSQLGDAAMYFCAYRSDGGATNKLIFGTGTLLAVQP
Vbeta: EAQVTQNPRYLITVTGKKLTVTCSQNMNHEYMSWYRQDPGLGLRQIYYSMNVEVTDKGDVPEGYKVSRKEKRNFPLILESPSPNQTSLYFCASSLGAGGYNSPLHFGNGTRLTVT
binding result [1]: no recognition
binding result [2]: no recognition
binding result [3]: no recognition
binding result [4]: no recognition
binding result [5]: no recognition
binding result [6]: no recognition
binding result [7]: no recognition
binding result [8]: no recognition
binding result [9]: no recognition
binding result [10]: no recognition
binding result [11]: no recognition
binding result [12]: no recognition
binding result [13]: no recognition
binding result [14]: no recognition
binding result [15]: no recognition
binding result [16]: no recognition
binding result [17]: no recognition
binding result [18]: recognises
binding result [19]: no recognition
binding result [20]: no recognition
binding result [21]: no recognition
binding result [22]: no recognition
binding result [23]: no recognition
binding result [24]: recognises

B2: TCR 2 (TCR, V domains shown)
Valpha: AQTVTQSQPEMSVQEAETVTLSCTYDTSENNYYLFWYKQPPSRQMILVIRQEAYKQQNATENRFSVNFQKAAKSFSLKISDSQLGDTAMYFCAFMYPSQGGSEKLVFGKGMKLTVNP
Vbeta: ETGVTQSPTHLIKTRGQQVTLRCSSQSGHNTVSWYQQALGQGPQFIFQYYREEENGRGNFPPRFSGLQFPNYSSELNVNALELDDSALYLCASSSPGFRSYGYTFGSGTRLTVV
binding result [25]: no recognition
binding result [26]: no recognition
binding result [27]: no recognition
binding result [28]: no recognition
binding result [29]: no recognition
binding result [8]: no recognition
binding result [30]: no recognition
binding result [31]: no recognition
binding result [9]: no recognition
binding result [32]: no recognition
binding result [33]: no recognition
binding result [34]: no recognition
binding result [35]: no recognition
binding result [18]: recognises
binding result [36]: no recognition
binding result [37]: no recognition
binding result [38]: no recognition
binding result [39]: no recognition
binding result [40]: no recognition
binding result [41]: no recognition
binding result [42]: no recognition
binding result [43]: no recognition
binding result [44]: no recognition
binding result [45]: no recognition
binding result [24]: recognises
